Experimental data taken from patent US20260132200A1.
Read-outs that look alike come from different tables or passages of the source. Values belong to the substance of their own block, whether it stands above or below them.

How the values were obtained:
[1] = biological target: human CD20 expressed on Raji cells (CD3-, CD20+ human B-cell line) (human) (UniProt P11836); experiment: cell-based or functional assay
[2] = biological target: human CD3 expressed on cells (Jurkat, a CD3+ human T-cell line; human T cells) (human) (UniProt P07766); experiment: cell-based or functional assay
[3] = biological target: human CD3 expressed on cells (Jurkat, a CD3+ human T-cell line; human T cells) (human) (UniProt P07766); experiment: cell-based or functional assay; remark: listed apart in the source
[4] = biological target: cynomolgus monkey CD3 on monkey T cells (CD2+CD4+ cells of cynomolgus PBMCs) (cynomolgus monkey) (UniProt Q95LI5); experiment: FACS on cynomolgus PBMCs, CD2+CD4+ T cells
[5] = biological target: cynomolgus monkey CD3 on monkey T cells (CD2+CD4+ cells of cynomolgus PBMCs) (cynomolgus monkey) (UniProt Q95LI5); experiment: FACS on monkey PBMCs, CD2+CD4+ T cells

Chain of human CD20 expressed on Raji cells (CD3-, CD20+ human B-cell line) (human) (P11836 whole entry): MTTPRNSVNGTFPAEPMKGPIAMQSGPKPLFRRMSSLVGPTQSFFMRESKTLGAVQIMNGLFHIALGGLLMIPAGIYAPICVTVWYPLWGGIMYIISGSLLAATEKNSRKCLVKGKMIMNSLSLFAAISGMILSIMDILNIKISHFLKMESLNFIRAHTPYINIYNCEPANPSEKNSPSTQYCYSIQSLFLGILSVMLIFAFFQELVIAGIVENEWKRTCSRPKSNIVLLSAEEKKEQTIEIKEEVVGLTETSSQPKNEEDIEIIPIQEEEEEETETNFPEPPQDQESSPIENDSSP
Chain of cynomolgus monkey CD3 on monkey T cells (CD2+CD4+ cells of cynomolgus PBMCs) (cynomolgus monkey) (Q95LI5 22-198): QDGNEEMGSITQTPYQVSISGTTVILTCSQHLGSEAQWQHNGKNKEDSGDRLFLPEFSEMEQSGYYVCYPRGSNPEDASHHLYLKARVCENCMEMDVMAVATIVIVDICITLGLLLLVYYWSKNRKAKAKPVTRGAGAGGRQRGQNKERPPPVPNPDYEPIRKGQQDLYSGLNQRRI

- CDC EC50, Raji [1]: 96.6 pM
- CDC EC50, Raji SCID1 [1]: 85600 pM
- CDC EC50, Raji SCID2 [1]: 58.7 pM
- CDC EC50, Raji SCID3 [1]: 25500 pM
- CDC EC50, Raji SCID4 [1]: 5290 pM
Substance: Control III: anti-CD20 therapeutic antibody with heavy and light chain sequences of Rituxan (Rituximab)

Substance: OKT-3, mouse monoclonal antibody against human T-cell surface antigens (ATCC CRL-8001)
- U937 Cytotoxicity Human T-cells [M] (EC50) [2]: 2.35e-12 M
- U937 Cytotoxicity Human T-cells [M] (EC50) [3]: 3.04e-12 M

- EC50 [4]: 70.3 pM
- EC50 [5]: 70.3 pM
Substance: SP34, mouse monoclonal antibody reactive against the epsilon chain of the T3 complex on human T lymphocyte cells
